Assay [1] deals with Truncated TBEV C protein C_(18-93), containing residues 18-93, Kuutsalo-14 strain (tick-borne encephalitis virus (TBEV-Eu), strain Kuutsalo-14). Description: SEC. Background: SEC sorts molecules by how far they enter the pores of the column.
Assay [2] addresses Full-length TBEV C protein (residues 1-96), Kuutsalo-14 strain (tick-borne encephalitis virus (TBEV-Eu), strain Kuutsalo-14). Put plainly: SEC.

Broadly, the stoichiometry N is a count of units in the complex or per binding partner. Take “Truncated TBEV C protein C_(18-93), containing residues 18-93, Kuutsalo-14 strain (domain or fragment)”: the stoichiometry N in assay [1] amounted to 2. “Full-length TBEV C protein (residues 1-96), Kuutsalo-14 strain (natural protein)”: the stoichiometry N in assay [2] stood at 2.

The values above are taken from article PMC9970071.
